As a reminder, the Kd is the concentration at which binding is half-saturated.

This is an account of results in publication PMC3432114.

One assay deals with RAGE (Homo sapiens) (UniProt Q15109). The settings on record: cited from earlier work.
The target in assay [1] is N-methyl-D-aspartate receptor (NMDAR) of C44 murine erythroleukaemia (MEL) cell membranes (mouse (endogenous in C44 MEL cells)) (UniProt P35438).

Chain of UniProt Q15109 (Q15109 23-404): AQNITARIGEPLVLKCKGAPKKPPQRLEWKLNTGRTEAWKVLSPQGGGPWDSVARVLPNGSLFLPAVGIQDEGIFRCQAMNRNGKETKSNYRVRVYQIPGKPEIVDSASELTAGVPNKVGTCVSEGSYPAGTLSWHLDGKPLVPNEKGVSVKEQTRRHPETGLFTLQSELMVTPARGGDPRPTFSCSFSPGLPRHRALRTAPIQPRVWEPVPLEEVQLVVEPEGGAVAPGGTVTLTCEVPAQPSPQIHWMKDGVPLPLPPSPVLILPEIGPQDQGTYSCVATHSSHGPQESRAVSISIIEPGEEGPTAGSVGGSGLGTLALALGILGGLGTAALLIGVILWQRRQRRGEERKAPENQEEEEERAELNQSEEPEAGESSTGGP
Chain of HMGB1 (P09429 whole entry): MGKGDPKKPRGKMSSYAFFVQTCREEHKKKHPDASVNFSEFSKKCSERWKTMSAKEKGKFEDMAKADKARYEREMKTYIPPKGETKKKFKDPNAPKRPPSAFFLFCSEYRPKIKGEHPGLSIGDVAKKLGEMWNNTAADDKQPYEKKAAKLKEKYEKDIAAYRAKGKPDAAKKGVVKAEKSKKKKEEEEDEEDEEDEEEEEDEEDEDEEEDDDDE

For HMGB1 (from UniProt P09429), the Kd with RAGE (Homo sapiens) is 10 nM.
In assay [1], “high mobility group box 1 (HMGB1) protein, eukaryotic recombinant (from UniProt P63159 1-215) (natural protein)” displayed a percent of differentiated (benzidine-positive) MEL cells after 24 h with HMBA and 250 pM HMGB1 (6% with HMBA alone; the increase abolished by MK-801 and antagonized by CGS 19755) of 12%.
